Reference: patent publication US20230041071A1 (NATIONAL INSTITUTE OF BIOLOGICAL SCIENCES BEIJING, published 2023)

Assays:
hAREG-98aa = molecular target: T1, hAREG-98aa (human, UniProt P15514 101-198); experiment: SPR, Biacore T200; mAb captured on anti-human Fc chip, antigen in solution
T1 construct: Bought protein
T1 sequence (looked up): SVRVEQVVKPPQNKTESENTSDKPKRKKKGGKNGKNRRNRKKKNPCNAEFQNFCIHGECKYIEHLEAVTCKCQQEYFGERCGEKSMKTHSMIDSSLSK
Method: (§1) To evaluate affinities of different mouse hybridoma mAbs or their humanized and engineered variants, SPR measurement was performed using Biacore T200 instrument. mAbs were captured on anti-human Fc CM5 biosensor chip surface, hAREG-EGFd-mFc, mAREG-EGFd-mFc or hAREG-98aa (purchased from PeproTech, cat #100-55B) in serial dilutions were injected over antibody-bound surface, followed by a dissociation phase. Association rates (Ka) and dissociation rates (Kd) were calculated using the one-to-one Langmuir binding model (BIA Evaluation Software, GE Life Sciences). The equilibrium dissociation constant (KD) was calculated as the ratio kd/ka.

hAREG-EGFd-mFc = molecular target: T2, hAREG-EGFd-mFc (human; mouse, UniProt P15514 142-184); experiment: as above
T2 construct: Expressed in 293F cells; not shown: Fc fragment of mouse IgG2a
T2 chain: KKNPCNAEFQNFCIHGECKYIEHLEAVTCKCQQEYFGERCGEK
Method: as §1

hAREG-E149K variant = molecular target: T3, hAREG-E149K variant (human, UniProt P15514 142-184); experiment: SPR (Biacore T200)
T3 construct: also called E149K variant of hAREG-EGFd
T3 chain: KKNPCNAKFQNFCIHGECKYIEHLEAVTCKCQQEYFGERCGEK

mAREG-N164H variant = molecular target: T4, mAREG-N164H variant (mouse, UniProt P31955 135-177, limits assumed); experiment: SPR (Biacore T200)
T4 construct: Position is in hAREG numbering
T4 chain: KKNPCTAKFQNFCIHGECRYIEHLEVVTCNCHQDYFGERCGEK

mAREG-EGFd-mFc = molecular target: T5, mAREG-EGFd-mFc (mouse, UniProt P31955 135-177); experiment: SPR (Biacore T200)
T5 construct: also called EGF domain of mAREG (aa135-177) fused with mFc tag; not shown: mFc tag (Fc fragment of mouse IgG2a as for hAREG-EGFd-mFc)
T5 chain: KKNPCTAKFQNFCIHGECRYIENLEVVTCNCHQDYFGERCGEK

hAREG-H164N variant = molecular target: T6, hAREG-H164N variant (human, UniProt P15514 142-184); experiment: SPR (Biacore T200)
T6 construct: also called H164N variant of hAREG-EGFd
T6 chain: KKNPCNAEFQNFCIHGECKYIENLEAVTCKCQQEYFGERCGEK

B1: hu9C12v6 (antibody, V domains shown)
VH: EVQLVESGGGLVKPGGSLRLSCAASGFTFSSYPMSWVRQAPEKGLEWVSTISTGGTYTYYPDSVKGRFTISRDNAKNSLYLQMNSLRAEDTAVYYCARQGPIYYGNYYYGMDVWGQGTTVTVSS
VL: DVVMTQSPLSLPVTLGDPASISCRSSQSLVNQEGETYLHWYQQRPGQSPKLLIYKVSNRFDGVPDRFSGSGSGTDFTLKISRVEAEDVGVYYCSQSTHVPYTFGQGTKLEIK
notes: Humanized 9C12 variant
Kd (hAREG-98aa): 0.188 nM
koff (hAREG-98aa): 0.00457 s⁻¹
kon (hAREG-98aa): 2.43e+07 M⁻¹ s⁻¹
Kd (hAREG-EGFd-mFc): 0.398 nM
koff (hAREG-EGFd-mFc): 0.000389 s⁻¹
kon (hAREG-EGFd-mFc): 978000 M⁻¹ s⁻¹
binding result (hAREG-E149K variant): binds
binding result (mAREG-N164H variant): binds
binding result (mAREG-EGFd-mFc): no binding
binding result (hAREG-H164N variant): no binding
